Experimental findings from the supplement of paper PMC9112550, “Optimization of the antimicrobial peptide Bac7 by deep mutational scanning” (BMC Biology, 2022) are described below.
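Also: peptides expressed intracellularly from a pBAD plasmid library in pooled LB shake-flask culture, induced with 0.3% L-arabinose, DNA abundance read by NGS, three biological replicates, DESeq2 with apeglm shrinkage.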

The data set concerns Escherichia coli TOP10. Nature of the data set: shrunken log2 fold change of peptide-encoding DNA abundance (4.5 h post-induction vs induction); higher = less antimicrobial activity (less host growth inhibition). The following applies: time post-induction: 4.5 h; library: site-saturation at positions 5, 18, 19, 20.
In the case of RRIRVRPPRLPRPRPRPLPVPRP, the “shrunken log2 fold change” value is 0.0196. Under RRIRRRPPRLPRPRPRPYNTPRP stands -0.436. Under RRIRMRPPRLPRPRPRPTNHPRP stands 0.0232; under RRIRDRPPRLPRPRPRPKLDPRP, 0.0966. To RRIRQRPPRLPRPRPRPEKKPRP belongs -0.0138; to RRIRARPPRLPRPRPRPNYEPRP, -0.22; to RRIRSRPPRLPRPRPRPLGNPRP, -0.43.

Turning to RRIRSRPPRLPRPRPRPGEMPRP, the “shrunken log2 fold change” value was 0.336. Under RRIRVRPPRLPRPRPRPGHTPRP stands -0.000319.

RRIRPRPPRLPRPRPRPVRLPRP: the “shrunken log2 fold change” value is 0.238. To RRIRIRPPRLPRPRPRPIQQPRP belongs -0.0134; to RRIRGRPPRLPRPRPRPGKFPRP, 0.427; to RRIRGRPPRLPRPRPRPWMFPRP, 0.0448. As to RRIRARPPRLPRPRPRPMNCPRP, the “shrunken log2 fold change” value is -0.116. Under RRIRWRPPRLPRPRPRPAFTPRP stands 0.0598; under RRIRLRPPRLPRPRPRPSFNPRP, -0.529; under RRIRWRPPRLPRPRPRPENQPRP, 0.353.

On to RRIRPRPPRLPRPRPRPAHFPRP, for which the “shrunken log2 fold change” value came to 0.111.

As for RRIRMRPPRLPRPRPRPQQFPRP, the “shrunken log2 fold change” value was 0.359.

For RRIRNRPPRLPRPRPRPCDMPRP, the “shrunken log2 fold change” value worked out at 0.0184. Under RRIRQRPPRLPRPRPRPLCGPRP stands 0.0478.

In the case of RRIRTRPPRLPRPRPRPATRPRP, the “shrunken log2 fold change” value turned out to be 0.0996. To RRIRARPPRLPRPRPRPYTYPRP belongs -0.458. For the sequence RRIRHRPPRLPRPRPRPQRLPRP, the “shrunken log2 fold change” value came to 0.00653. To RRIRQRPPRLPRPRPRPHGYPRP belongs -0.138; to RRIRHRPPRLPRPRPRPEYKPRP, -0.467; to RRIRSRPPRLPRPRPRPYAKPRP, -0.123. Under RRIRDRPPRLPRPRPRPITRPRP stands 0.0173.

On to RRIRFRPPRLPRPRPRPGPPPRP, for which the “shrunken log2 fold change” value turned out to be 0.909. To RRIRARPPRLPRPRPRPYEPPRP belongs 0.116; to RRIRHRPPRLPRPRPRPYAVPRP, -0.0274; to RRIRSRPPRLPRPRPRPNCSPRP, -0.0305. To RRIRNRPPRLPRPRPRPGKIPRP belongs -0.284; to RRIRQRPPRLPRPRPRPQGMPRP, 0.0331. To RRIRERPPRLPRPRPRPNNNPRP belongs -0.977; to RRIRFRPPRLPRPRPRPAGTPRP, -0.0142; to RRIRTRPPRLPRPRPRPADCPRP, -0.082.

Turning to RRIRYRPPRLPRPRPRPPGGPRP, the “shrunken log2 fold change” value was determined as 0.259.

In the case of RRIRMRPPRLPRPRPRPAFLPRP, the “shrunken log2 fold change” value stood at 0.175. To RRIRWRPPRLPRPRPRPRKHPRP belongs 0.15.

In the case of RRIRQRPPRLPRPRPRPTWRPRP, the “shrunken log2 fold change” value was determined as 0.345.

On to RRIRSRPPRLPRPRPRPIFKPRP, for which the “shrunken log2 fold change” value is -0.186.

Regarding RRIRVRPPRLPRPRPRPVYAPRP, the “shrunken log2 fold change” value was -0.00846. On to RRIRLRPPRLPRPRPRPKCCPRP, for which the “shrunken log2 fold change” value was -0.166.

Consider RRIRDRPPRLPRPRPRPKQVPRP, for which the “shrunken log2 fold change” value was -0.185. Under RRIRPRPPRLPRPRPRPCWGPRP stands -0.0769; under RRIRGRPPRLPRPRPRPEPYPRP, 0.141. Under RRIRTRPPRLPRPRPRPMSDPRP stands -0.0819; under RRIRARPPRLPRPRPRPSMQPRP, 0.352. Under RRIRDRPPRLPRPRPRPSWFPRP stands -0.192. Turning to RRIRKRPPRLPRPRPRPPAKPRP, the “shrunken log2 fold change” value was 0.408. To RRIRCRPPRLPRPRPRPYFNPRP belongs -1.04; to RRIRNRPPRLPRPRPRPCIMPRP, -0.135; to RRIRDRPPRLPRPRPRPTMEPRP, 0.335.

On to RRIRLRPPRLPRPRPRPVFCPRP, for which the “shrunken log2 fold change” value came to 0.14.

In the case of RRIRMRPPRLPRPRPRPYDSPRP, the “shrunken log2 fold change” value was 0.00275. Under RRIRHRPPRLPRPRPRPKDFPRP stands -0.0494; under RRIRLRPPRLPRPRPRPGDSPRP, -0.23; under RRIRCRPPRLPRPRPRPTFVPRP, -0.161. Under RRIRMRPPRLPRPRPRPIPWPRP stands -0.033. To RRIRKRPPRLPRPRPRPDFSPRP belongs 0.0114; to RRIRHRPPRLPRPRPRPRGMPRP, 0.207. Turning to RRIRNRPPRLPRPRPRPWIYPRP, the “shrunken log2 fold change” value was -0.187. In the case of RRIRCRPPRLPRPRPRPQCKPRP, the “shrunken log2 fold change” value is -0.619. To RRIRGRPPRLPRPRPRPIWYPRP belongs -0.114. Under RRIRCRPPRLPRPRPRPYIQPRP stands -0.3. As for RRIRLRPPRLPRPRPRPFSWPRP, the “shrunken log2 fold change” value is -0.213. For RRIRERPPRLPRPRPRPKRTPRP, the “shrunken log2 fold change” value is 0.108.

For RRIRPRPPRLPRPRPRPMTNPRP, the “shrunken log2 fold change” value is -0.184. To RRIRPRPPRLPRPRPRPSWEPRP belongs 0.245; to RRIRPRPPRLPRPRPRPDTTPRP, -0.156; to RRIRYRPPRLPRPRPRPMPTPRP, 0.0288. To RRIRARPPRLPRPRPRPQKDPRP belongs 0.0524; to RRIRIRPPRLPRPRPRPSKSPRP, -0.413; to RRIRRRPPRLPRPRPRPENYPRP, 0.0652. Turning to RRIRRRPPRLPRPRPRPRMMPRP, the “shrunken log2 fold change” value is 0.351. Under RRIRSRPPRLPRPRPRPKIMPRP stands -0.246. To RRIRGRPPRLPRPRPRPNQSPRP belongs 0.17.

As to RRIRCRPPRLPRPRPRPSAEPRP, the “shrunken log2 fold change” value worked out at 0.153. On to RRIRKRPPRLPRPRPRPVPEPRP, for which the “shrunken log2 fold change” value was determined as 0.151. Under RRIRCRPPRLPRPRPRPYSTPRP stands -0.818. Under RRIRVRPPRLPRPRPRPCDFPRP stands 0.0154; under RRIRKRPPRLPRPRPRPCFRPRP, -0.0108; under RRIRDRPPRLPRPRPRPRACPRP, 0.389. To RRIRCRPPRLPRPRPRPFNAPRP belongs -0.521; to RRIRFRPPRLPRPRPRPCMQPRP, -0.163; to RRIRQRPPRLPRPRPRPIWSPRP, -0.514. With RRIRTRPPRLPRPRPRPGFSPRP, the “shrunken log2 fold change” value is -0.016. To RRIRLRPPRLPRPRPRPQREPRP belongs 0.144.

As for RRIRARPPRLPRPRPRPYFWPRP, the “shrunken log2 fold change” value was -0.0609. On to RRIRRRPPRLPRPRPRPCFPPRP, for which the “shrunken log2 fold change” value is 0.592. Under RRIRYRPPRLPRPRPRPRLFPRP stands -0.194; under RRIRERPPRLPRPRPRPVTRPRP, -0.0559. Under RRIRYRPPRLPRPRPRPQKMPRP stands -0.295; under RRIRERPPRLPRPRPRPVNCPRP, -0.315. Under RRIRDRPPRLPRPRPRPLTQPRP stands 0.0757. Consider RRIRIRPPRLPRPRPRPFLTPRP, for which the “shrunken log2 fold change” value is -0.736. Under RRIRFRPPRLPRPRPRPHTDPRP stands -0.736; under RRIRDRPPRLPRPRPRPTEHPRP, -0.109.

For RRIRDRPPRLPRPRPRPHDWPRP, the “shrunken log2 fold change” value worked out at 0.807.

Take RRIRLRPPRLPRPRPRPFGQPRP: the “shrunken log2 fold change” value was -0.11. To RRIRVRPPRLPRPRPRPHGDPRP belongs 0.00703; to RRIRIRPPRLPRPRPRPFMLPRP, -0.407; to RRIRNRPPRLPRPRPRPPGTPRP, 0.241. To RRIRNRPPRLPRPRPRPPANPRP belongs 0.262.

Turning to RRIRWRPPRLPRPRPRPAPRPRP, the “shrunken log2 fold change” value was determined as 1.12. To RRIRARPPRLPRPRPRPDVKPRP belongs 0.395; to RRIRGRPPRLPRPRPRPWINPRP, -0.137. Under RRIRTRPPRLPRPRPRPRYMPRP stands -0.62; under RRIRPRPPRLPRPRPRPQVMPRP, -0.286; under RRIRDRPPRLPRPRPRPGRMPRP, 0.174.

As to RRIRKRPPRLPRPRPRPEPQPRP, the “shrunken log2 fold change” value worked out at 0.637. Under RRIRQRPPRLPRPRPRPPGSPRP stands 0.111. To RRIRGRPPRLPRPRPRPEVTPRP belongs 0.168; to RRIRCRPPRLPRPRPRPGNYPRP, -0.516; to RRIRTRPPRLPRPRPRPPRKPRP, 0.25. Consider RRIRNRPPRLPRPRPRPSEGPRP, for which the “shrunken log2 fold change” value was -0.0276.

Turning to RRIRKRPPRLPRPRPRPMQDPRP, the “shrunken log2 fold change” value was -0.0916. To RRIRERPPRLPRPRPRPFWNPRP belongs -0.51. To RRIRHRPPRLPRPRPRPHGMPRP belongs -0.000911; to RRIRMRPPRLPRPRPRPIRMPRP, 0.213; to RRIRWRPPRLPRPRPRPTMNPRP, -0.225. Under RRIRSRPPRLPRPRPRPDFYPRP stands -0.0521; under RRIRVRPPRLPRPRPRPWSFPRP, -0.225. On to RRIRARPPRLPRPRPRPIKFPRP, for which the “shrunken log2 fold change” value is -0.126.
